From IntAct's records for PubMed 28424519

Target: snf2_yeast SNF2 (UniProt P22082)
Chain of UniProt P22082 (P22082 whole entry): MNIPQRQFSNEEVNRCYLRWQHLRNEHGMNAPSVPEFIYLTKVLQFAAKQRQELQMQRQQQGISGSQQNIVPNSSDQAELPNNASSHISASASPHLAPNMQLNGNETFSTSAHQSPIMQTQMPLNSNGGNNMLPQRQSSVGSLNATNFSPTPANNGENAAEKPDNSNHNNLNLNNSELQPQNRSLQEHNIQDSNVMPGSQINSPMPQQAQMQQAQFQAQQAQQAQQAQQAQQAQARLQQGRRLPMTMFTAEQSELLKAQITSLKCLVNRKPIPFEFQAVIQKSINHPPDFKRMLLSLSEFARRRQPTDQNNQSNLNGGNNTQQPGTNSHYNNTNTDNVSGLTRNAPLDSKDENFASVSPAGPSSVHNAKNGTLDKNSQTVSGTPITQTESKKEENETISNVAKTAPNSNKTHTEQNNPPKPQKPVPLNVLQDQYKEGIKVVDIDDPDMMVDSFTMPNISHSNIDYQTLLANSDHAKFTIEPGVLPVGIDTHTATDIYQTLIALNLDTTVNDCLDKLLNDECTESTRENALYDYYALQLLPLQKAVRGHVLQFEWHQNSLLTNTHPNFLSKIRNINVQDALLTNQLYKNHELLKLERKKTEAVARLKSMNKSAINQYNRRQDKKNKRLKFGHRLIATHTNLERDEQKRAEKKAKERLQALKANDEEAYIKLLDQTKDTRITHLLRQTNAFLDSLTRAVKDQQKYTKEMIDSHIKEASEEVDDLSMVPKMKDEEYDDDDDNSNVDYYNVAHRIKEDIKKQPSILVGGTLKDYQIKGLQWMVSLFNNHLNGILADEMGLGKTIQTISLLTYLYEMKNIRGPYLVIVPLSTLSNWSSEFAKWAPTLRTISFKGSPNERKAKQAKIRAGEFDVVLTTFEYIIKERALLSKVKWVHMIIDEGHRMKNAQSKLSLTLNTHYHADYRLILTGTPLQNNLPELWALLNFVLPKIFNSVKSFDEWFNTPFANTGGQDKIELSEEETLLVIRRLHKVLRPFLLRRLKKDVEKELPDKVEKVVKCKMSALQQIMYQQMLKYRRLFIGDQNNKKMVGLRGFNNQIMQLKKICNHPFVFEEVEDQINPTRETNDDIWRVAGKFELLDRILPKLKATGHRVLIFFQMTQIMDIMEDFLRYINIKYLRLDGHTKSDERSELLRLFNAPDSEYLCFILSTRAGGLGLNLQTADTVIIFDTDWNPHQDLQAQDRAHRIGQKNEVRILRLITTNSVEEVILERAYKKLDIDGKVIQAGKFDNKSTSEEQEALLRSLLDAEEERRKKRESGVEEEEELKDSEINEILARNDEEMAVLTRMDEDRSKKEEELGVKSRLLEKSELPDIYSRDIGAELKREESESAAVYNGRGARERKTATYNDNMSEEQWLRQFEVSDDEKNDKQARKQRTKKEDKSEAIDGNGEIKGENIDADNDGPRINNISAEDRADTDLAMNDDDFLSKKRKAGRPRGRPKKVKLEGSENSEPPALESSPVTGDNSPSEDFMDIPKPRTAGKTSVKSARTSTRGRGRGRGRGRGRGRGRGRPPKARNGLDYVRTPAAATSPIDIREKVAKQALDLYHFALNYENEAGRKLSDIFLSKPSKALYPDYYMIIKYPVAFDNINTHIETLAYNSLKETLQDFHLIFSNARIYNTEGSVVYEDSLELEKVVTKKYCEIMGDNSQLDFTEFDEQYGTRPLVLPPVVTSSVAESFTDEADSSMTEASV

Row | effect of a mutation on the interaction | Substance
1 | decreasing interaction | Histone H4 (Saccharomyces cerevisiae) (from UniProt P02309) R20A
2 | decreasing interaction | Histone H4 (Saccharomyces cerevisiae) (from UniProt P02309) K17A;R18A;R20A
3 | decreasing interaction | Histone H4 (Saccharomyces cerevisiae) (from UniProt P02309) R18A
4 | decreasing interaction | Histone H4 (Saccharomyces cerevisiae) (from UniProt P02309) K17A
